This passage reports Kd results from PMC9300723.

For the assay, the target named is F5M-σ^A1.1^(S2C), fluorescein-labelled σ1.1 domain of Pae σ^A (Pseudomonas aeruginosa). Kind of assay: fluorescence polarisation; 2 nM fluorescein-labelled σ1.1 domain, Pae RNAP core enzyme 0-4096 nM; 10 mM Tris-HCl pH 7.7, 100 mM NaCl, 1 mM DTT, 1% glycerol, 0.025% Tween-20; 10 min at room temperature. (In general: Polarisation of emitted light reports the rotation of a fluorescent probe.)

As a reminder, the Kd is the equilibrium constant for the complex coming apart. Low readings indicate higher affinity, high ones lower affinity.

The substance “Pae RNAP core enzyme (from UniProt O52760 1-333; Q51561 1-1357; Q9HWC9 2-1399; B7V5M8 1-88) (complex)” came in with a Kd of 220 nM.
